What was measured:
murine HexD = target: T1, murine HexD (Mus musculus, UniProt Q3U4H6); assay: enzyme inhibition, preliminary studies (data not shown); assay type: biochemical
T1 sequence (Q3U4H6 1-486): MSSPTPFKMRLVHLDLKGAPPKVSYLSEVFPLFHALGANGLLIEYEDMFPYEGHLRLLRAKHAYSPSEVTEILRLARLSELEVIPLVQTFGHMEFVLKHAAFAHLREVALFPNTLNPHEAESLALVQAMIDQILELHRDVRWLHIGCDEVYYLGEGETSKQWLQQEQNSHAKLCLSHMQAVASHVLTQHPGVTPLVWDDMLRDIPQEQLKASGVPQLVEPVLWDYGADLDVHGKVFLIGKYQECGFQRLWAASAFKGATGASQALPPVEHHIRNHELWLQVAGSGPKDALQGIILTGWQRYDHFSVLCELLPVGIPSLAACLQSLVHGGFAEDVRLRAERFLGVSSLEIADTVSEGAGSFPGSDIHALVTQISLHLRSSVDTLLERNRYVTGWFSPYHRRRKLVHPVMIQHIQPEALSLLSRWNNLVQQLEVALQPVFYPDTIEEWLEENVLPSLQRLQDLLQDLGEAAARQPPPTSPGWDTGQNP

hexosaminidase D (HexD) = target: T2, hexosaminidase D (HexD) (Homo sapiens, UniProt Q8WVB3); assay: inhibition of purified enzyme hydrolysis of PNP-GalNAc, absorbance, Lineweaver-Burk and nonlinear regression; assay type: biochemical
T2 construct: human HexD in pET30a vector, expressed in E. coli BL21(DE3)
T2 sequence (Q8WVB3 1-486): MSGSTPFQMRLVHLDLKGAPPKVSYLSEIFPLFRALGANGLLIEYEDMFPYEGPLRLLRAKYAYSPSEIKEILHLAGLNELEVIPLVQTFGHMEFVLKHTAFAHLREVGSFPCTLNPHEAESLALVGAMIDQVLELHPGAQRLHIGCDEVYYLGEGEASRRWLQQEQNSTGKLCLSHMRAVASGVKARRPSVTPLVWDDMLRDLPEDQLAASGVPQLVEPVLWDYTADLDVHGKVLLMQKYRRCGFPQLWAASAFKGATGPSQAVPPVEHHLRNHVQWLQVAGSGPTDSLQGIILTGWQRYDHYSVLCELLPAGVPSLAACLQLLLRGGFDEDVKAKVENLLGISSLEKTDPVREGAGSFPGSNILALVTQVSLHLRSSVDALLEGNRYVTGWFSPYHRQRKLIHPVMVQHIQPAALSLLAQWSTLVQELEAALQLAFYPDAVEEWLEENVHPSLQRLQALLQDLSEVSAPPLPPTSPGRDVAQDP

[1] = substrate: CC(=O)N[C@H]1[C@H](Oc2ccc([N+](=O)[O-])cc2)O[C@H](CO)[C@H](O)[C@@H]1O; assay: Michaelis-Menten kinetics of hydrolysis by purified enzyme (KM); hydrolysis also followed by 1H NMR; assay type: biochemical, Homo sapiens; conditions: active site; Asp148 polarizing residue, Glu149 general acid/base
purified protein [2] = substrate: CC(=O)N[C@H]1[C@H](Oc2ccc([N+](=O)[O-])c(F)c2)O[C@H](CO)[C@H](O)[C@@H]1O; assay: purified protein
purified protein [3] = substrate: CC(=O)N[C@H]1[C@H](Oc2ccc([N+](=O)[O-])cc2)O[C@H](CO)[C@@H](O)[C@@H]1O; assay: purified protein
purified protein [4] = substrate: CC(=O)N[C@H]1[C@H](Oc2ccc([N+](=O)[O-])c(F)c2)O[C@H](CO)[C@@H](O)[C@@H]1O; assay: purified protein
purified protein [5] = substrate: O=C(CF)N[C@H]1[C@H](Oc2ccc([N+](=O)[O-])cc2)O[C@H](CO)[C@H](O)[C@@H]1O; assay: purified protein
purified protein [6] = substrate: O=C(N[C@H]1[C@H](Oc2ccc([N+](=O)[O-])cc2)O[C@H](CO)[C@H](O)[C@@H]1O)C(F)(F)F; assay: purified protein
purified protein [7] = substrate: O=C(N[C@H]1[C@H](Oc2ccc([N+](=O)[O-])cc2)O[C@H](CO)[C@H](O)[C@@H]1O)C(F)F; assay: purified protein

Molecule: CC1=N[C@@H]2[C@@H](O)[C@@H](O)[C@@H](CO)O[C@@H]2S1 [compound 4, Gal-NAG-thiazoline]
- Ki (murine HexD): 520 nM
- Ki (hexosaminidase D (HexD)): 420 nM

B1: hexosaminidase D (HexD) (Homo sapiens) (protein)
chain: T2 sequence (Q8WVB3 1-486)
notes: human HexD in pET30a vector, expressed in E. coli BL21(DE3)
- Km [1]: 72.1 ± 4.8 µM
- kcat [1]: 1.32 ± 0.02 s⁻¹
- kcat/Km [1]: 18200 ± 1250 M⁻¹ s⁻¹
- Km (purified protein [2]): 172 ± 19 µM
- kcat (purified protein [2]): 2.03 ± 0.065 s⁻¹
- kcat/Km (purified protein [2]): 11800 ± 1350 M⁻¹ s⁻¹
- Km (purified protein [3]): 607 ± 53 µM
- kcat (purified protein [3]): 0.507 ± 0.0148 s⁻¹
- kcat/Km (purified protein [3]): 835 ± 76.7 M⁻¹ s⁻¹
- Km (purified protein [4]): 852 ± 54 µM
- kcat (purified protein [4]): 1.54 ± 0.045 s⁻¹
- kcat/Km (purified protein [4]): 1820 ± 127 M⁻¹ s⁻¹
- Km (purified protein [5]): 533 ± 17 µM
- kcat (purified protein [5]): 2.6 ± 0.0317 s⁻¹
- kcat/Km (purified protein [5]): 4980 ± 183 M⁻¹ s⁻¹
- Km (purified protein [6]): 103 ± 27 µM
- kcat (purified protein [6]): 0.042 ± 0.00283 s⁻¹
- kcat/Km (purified protein [6]): 408 ± 108 M⁻¹ s⁻¹
- Km (purified protein [7]): 102 ± 16 µM
- kcat (purified protein [7]): 0.27 ± 0.0108 s⁻¹
- kcat/Km (purified protein [7]): 2650 ± 417 M⁻¹ s⁻¹

— paper PMC4878814, “Mechanism of Human Nucleocytoplasmic Hexosaminidase D” (Biochemistry, 2016)
